# B1: tmCLIC1omab: IgG1 class antibody containing the heavy chain variable region SEQ ID NO:13 and the light chain variable region SEQ ID NO:14 (antibody, listed as Mus musculus, V domains shown)
# VH: EVMLVESGGGLVKPGGSLKLSCAASGFAFSNYAMSWIRQIPEKRLEWVATISTGGSSTFYPDSVKGRFTISRDNAKNTLYLQMSSLRSEDTAMYYCTRHAYEAWFAYWGQGTLVTVSA
# VL: QIVLTQSPALMSASPGEKVTMTCSASSSVSYMYWYQQRPRSSPKPWIYLTSTLASGVPTRFSGSGSGTSYSLTISSMEAEDAATYYCQQWNSHPLTFGSGTKLEIK
# Legend:
# Type in all cases: cell-based
# [1] = tested on: pMAP38; assay: Western blot of phosphorylated MAP38 in COLO201; conditions: COLO201, 72 h of treatment
# [2] = target: T1, tmCLIC1 (Homo sapiens, UniProt O00299); assay: Immunofluorescence on monocytes isolated from peripheral blood; conditions: monocytes of Alzheimer's disease patients and controls, fluorescent secondary antibody
# T1 construct: monocytes isolated from the peripheral blood of patients with a diagnosis of Alzheimer's disease and controls; endogenous in cells; host or cells: human peripheral blood monocytes (Alzheimer's disease patients and healthy controls)
# Method: For each individual, 8 ml of peripheral blood was collected in BD Vacutainer® CPT™ test tubes with sodium citrate, gently mixed by inversion and centrifuged at room temperature for 20 min. at 1600 rpm to separate three distinct phases: a bottom layer containing red blood cells, an intermediate layer containing mononuclear cells, and a top layer containing plasma. The layer of mononuclear cells was collected together with part of the plasma and transferred to a centrifuge tube. PBS was added until a final volume of […] was reached, and it was gently mixed by inversion and centrifuged for 10 min. at 300 rpm. The resulting pellet underwent two further washes in 5 ml of PBS, and was used for the subsequent experiments.
# The pellet of mononuclear cells isolated from the blood was counted and divided into samples containing an equal number of cells (1×10^6 cells/sample). Each sample was resuspended in 90 μl of cold staining solution (0.5% BSA, 2 mM EDTA in PBS) and, after the addition of 10 μl of FcR blocker (Miltenyi Biotec), was incubated in ice for 15 min. 10 μl of primary antibody diluted in staining solution was then added, and the sample was incubated for 1 h in ice. At the end of the incubation period, each sample was washed with 1 ml of cold staining solution and centrifuged at 350 rpm for 5 min. […]
# [3] = tested on: human glioblastoma cells; assay: ROS production in human glioblastoma cells in primary culture
# Method: In the subsequent functional experiment, ROS production was measured over time. The graph in FIG. 11 relates to the acquisition of fluorescence signals proportional to the amount of cytoplasmic ROS in glioblastoma cells. The cells were treated with both the antibody and the tmCLIC1 channel blocker.
molecule,measurement,setting,value
B1,expression of pMAP38,[1],downregulated
same,specificity of staining on monocytes,[2],specificity of the antibody for the membrane protein
same,fall in ROS production,"[3]; FIG. 11 legend, versus control",about fourfold
same,reduction of the slope of the ROS increase curve,[3]; fluorescence signals proportional to cytoplasmic ROS,about fivefold
